8 molecules from patent publication US20210388107A1 (BYONDIS B V, published 2021) can be followed below.

Positions count from the first letter of the chain named.

The labels stand for the following.
B1: humanized anti-SIRPα antibody 1 (antibody, human IgG1, kappa, L234A L235A)
heavy: not shown
light: DIQMTQSPSSLSASVGDRVTITCRASQSINSYLAWYQQKPGKAPKLLIYSASFLYSGVPSRFSGSGSGTDFTLTISSLQPEDFATYYCQSWHYISRSYTFGQGTKVEIKRTVAAPSVFIFPPSDEQLKSGTASVVCLLNNFYPREAKVQWKVDNALQSGNSQESVTEQDSKDSTYSLSSTLTLSKADYEKHKVYACEVTHQGLSSPVTKSFNRGEC
notes: human IgG1 LALA, kappa; also called mAb 1
B2: humanized anti-SIRPα antibody 3 (antibody, human IgG1, kappa, L234A L235A)
heavy: not shown
light: B1 light
notes: human IgG1 LALA, kappa; also called mAb 3
B3: humanized anti-SIRPα antibody 4 (antibody, human IgG1, kappa, L234A L235A)
heavy: not shown
light: B1 light
notes: human IgG1 LALA, kappa; also called mAb 4
B4: humanized anti-SIRPα antibody 12 (antibody, human IgG1, kappa, L234A L235A)
heavy: not shown
light: B1 light
notes: human IgG1 LALA, kappa; also called mAb 12
B5: humanized anti-SIRPα antibody 2 (antibody, human IgG1, kappa, L234A L235A)
heavy: not shown
light: B1 light
notes: human IgG1 LALA, kappa; also called mAb 2
B6: humanized anti-SIRPα antibody 7 (antibody, human IgG1, kappa, L234A L235A, V domains shown)
VH: RQLVESGGGLVQPGGSLRLSCAASGFSLSSHGISWVRQAPGKGLEWVGTIGTGVITYYASWAKGRFTGSKTSSTAYLQMTSLRAEDTAVYYCARGSAWNDPFDYWGQGTLVTVSS
VL: DIVMTQSPSSLSASVGDRVTITCQASQSVYGNNDLAWYQQKPGQAPKLLIYLASTLATGVPSRFSGSGSGTDFTLTISSLQPEDFATYYCLGGGDDEADNTFGQGTKVEIKR
notes: human IgG1 LALA, kappa; also called mAb 7
B7: humanized anti-SIRPα antibody 9 (antibody, human IgG1, kappa, L234A L235A, V domains shown)
VH: B6 VH with A84S
VL: B6 VL
notes: human IgG1 LALA, kappa; also called mAb 9
B8: humanized anti-SIRPα antibody 11 (antibody, human IgG1, kappa, L234A L235A, V domains shown)
VH: B6 VH
VL: B6 VL with V3E, L11V, I21L, T101V, Q104G
notes: human IgG1 LALA, kappa; also called mAb 11

T5 sequence (chain, as listed by the source limits assumed): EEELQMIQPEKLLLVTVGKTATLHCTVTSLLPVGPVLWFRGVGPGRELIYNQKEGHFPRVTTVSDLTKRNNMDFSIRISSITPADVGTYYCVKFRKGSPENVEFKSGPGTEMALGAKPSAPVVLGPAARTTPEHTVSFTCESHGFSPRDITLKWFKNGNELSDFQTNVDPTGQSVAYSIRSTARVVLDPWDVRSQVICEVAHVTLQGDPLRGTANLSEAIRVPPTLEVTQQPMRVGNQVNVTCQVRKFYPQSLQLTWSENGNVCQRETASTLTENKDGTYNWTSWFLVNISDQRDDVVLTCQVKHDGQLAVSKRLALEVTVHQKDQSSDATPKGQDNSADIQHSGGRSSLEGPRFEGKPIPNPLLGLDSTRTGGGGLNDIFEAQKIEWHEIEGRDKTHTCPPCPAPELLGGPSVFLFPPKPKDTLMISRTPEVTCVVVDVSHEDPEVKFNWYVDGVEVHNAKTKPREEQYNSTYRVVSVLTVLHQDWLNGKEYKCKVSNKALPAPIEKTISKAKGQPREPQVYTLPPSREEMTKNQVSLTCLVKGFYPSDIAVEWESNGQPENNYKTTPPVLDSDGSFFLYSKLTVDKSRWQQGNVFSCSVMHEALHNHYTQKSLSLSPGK
T4 sequence (chain, as listed by the source limits assumed): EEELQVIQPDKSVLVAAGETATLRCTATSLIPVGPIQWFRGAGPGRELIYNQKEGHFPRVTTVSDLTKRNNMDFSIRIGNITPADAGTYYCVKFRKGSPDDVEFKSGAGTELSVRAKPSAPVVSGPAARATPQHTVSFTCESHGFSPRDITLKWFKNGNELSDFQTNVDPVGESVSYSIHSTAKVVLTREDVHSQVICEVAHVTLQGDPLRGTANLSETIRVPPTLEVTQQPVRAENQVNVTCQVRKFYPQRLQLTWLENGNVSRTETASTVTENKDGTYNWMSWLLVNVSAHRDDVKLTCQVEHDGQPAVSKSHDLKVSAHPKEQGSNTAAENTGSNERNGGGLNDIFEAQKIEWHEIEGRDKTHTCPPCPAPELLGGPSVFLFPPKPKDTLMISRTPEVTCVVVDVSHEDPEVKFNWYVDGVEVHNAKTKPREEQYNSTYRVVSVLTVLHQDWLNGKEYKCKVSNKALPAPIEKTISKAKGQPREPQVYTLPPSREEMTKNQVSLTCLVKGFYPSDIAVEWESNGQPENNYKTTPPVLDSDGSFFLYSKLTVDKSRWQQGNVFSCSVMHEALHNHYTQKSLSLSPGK
T3 sequence (chain, as listed by the source limits assumed): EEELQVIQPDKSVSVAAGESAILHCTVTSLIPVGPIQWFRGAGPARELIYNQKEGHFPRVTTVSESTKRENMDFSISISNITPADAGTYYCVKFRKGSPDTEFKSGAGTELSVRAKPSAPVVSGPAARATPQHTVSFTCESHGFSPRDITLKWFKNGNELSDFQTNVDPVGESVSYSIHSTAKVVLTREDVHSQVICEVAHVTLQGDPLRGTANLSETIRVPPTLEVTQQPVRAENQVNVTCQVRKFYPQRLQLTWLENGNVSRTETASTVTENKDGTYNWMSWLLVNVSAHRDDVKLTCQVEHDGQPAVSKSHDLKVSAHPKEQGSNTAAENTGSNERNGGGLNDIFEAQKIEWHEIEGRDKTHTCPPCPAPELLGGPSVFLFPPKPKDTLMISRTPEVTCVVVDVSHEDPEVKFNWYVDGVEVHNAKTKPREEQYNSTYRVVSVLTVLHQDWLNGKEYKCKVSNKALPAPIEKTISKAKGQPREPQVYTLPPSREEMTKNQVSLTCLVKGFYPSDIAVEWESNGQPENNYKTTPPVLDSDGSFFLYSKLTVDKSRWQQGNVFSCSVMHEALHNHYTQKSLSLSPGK

For one assay, the target named is T1, human SIRPβ1v2, extracellular domain, Avi-FXa-Fc tag (human, biotinylated).
T1 construct: also called huSIRPβ1v2
T1 sequence (chain, as listed by the source limits assumed): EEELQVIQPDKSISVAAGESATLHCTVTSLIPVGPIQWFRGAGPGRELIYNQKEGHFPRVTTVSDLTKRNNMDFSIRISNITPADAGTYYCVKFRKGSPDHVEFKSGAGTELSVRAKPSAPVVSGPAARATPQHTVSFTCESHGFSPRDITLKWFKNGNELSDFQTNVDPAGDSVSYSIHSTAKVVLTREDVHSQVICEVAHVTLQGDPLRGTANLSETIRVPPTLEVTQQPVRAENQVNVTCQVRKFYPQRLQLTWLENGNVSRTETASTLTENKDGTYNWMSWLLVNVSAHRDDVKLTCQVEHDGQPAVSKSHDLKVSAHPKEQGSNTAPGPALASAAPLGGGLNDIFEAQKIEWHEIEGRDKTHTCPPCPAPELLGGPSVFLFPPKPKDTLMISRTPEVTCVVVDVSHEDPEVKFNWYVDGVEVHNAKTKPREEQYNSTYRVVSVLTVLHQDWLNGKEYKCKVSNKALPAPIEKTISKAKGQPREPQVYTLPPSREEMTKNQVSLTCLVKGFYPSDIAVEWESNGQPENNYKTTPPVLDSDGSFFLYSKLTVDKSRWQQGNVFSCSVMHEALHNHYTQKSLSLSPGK
As to the kind of experiment: SPR, captured biotinylated antigen. As to the method: (§1) Surface Plasmon Resonance (SPR) assay: Affinity analysis was performed by single cycle kinetics analysis on a Surface Plasmon Resonance apparatus (BiaCore™ T200 system, GE Life Sciences) at 25° C. […] For each step an association time of 150 sec was used, followed by a dissociation time of 600 sec after the highest concentration only, all at a flow rate of 30 μl/min. Regeneration was performed with 6 M guanidine-HCl, 0.25 M NaOH solution (120 sec with flow rate of 30 μl/min). […] Sensorgrams were fitted with a 1:1 Langmuir model for all tested anti-SIRP antibodies. The kinetic parameters (association rate [kₐ], dissociation rate [kd] and binding constant, also referred to as equilibrium dissociation constant or binding affinity [KD]) were calculated using BiaCore™ T200 evaluation software (v3.1).
For orientation: SPR reads the build-up and loss of mass on a sensor chip optically.
Regarding B1, the affinity, expressed as Kd, was 2.42 nM.
Turning to B2, binding was put at a Kd of 1.92 nM.
On to B3, for which the Kd (usually the free concentration of one partner at which half of the binding sites on the other are occupied at equilibrium, for simple one-to-one binding) worked out at 2.34 nM.
For B4, the dissociation constant Kd amounted to 1.94 nM.
Molecule B5 had a Kd of 2.54 nM.

In the next assay the target is T2, cynomolgus monkey SIRPα, extracellular domain, Avi-FXa-Fc tag (cynomolgus monkey, biotinylated).
T2 construct: also called cySIRPα
As to the kind of experiment: SPR, captured biotinylated antigen. As to the method: as §1
The molecule B1 had a Kd of 1.87 nM.
Same read-out and setting: in the case of B2 it was 1.66 nM; in that of B3, 1.94 nM.
Take B4: the Kd turned out to be 1.53 nM.
On the same count and under the same terms, to B5 belongs 2.27 nM.

Another assay addresses T3, human SIRPα1 extracellular domain 1-370, Avi-FXa-Fc tag (human, biotinylated).
T3 construct: also called huSIRPα1; v2
Kind of assay: SPR, captured biotinylated antigen. As to the method: as §1
Take B6: the Kd amounted to 0.0171 nM.
The same measure, in the same setting: in the case of B7 it was 0.0191 nM; in that of B8, 0.0349 nM.
The same measure, in the same setting: in the case of B1 it was 1.49 nM; in that of B2, 0.908 nM; in that of B3, 1.38 nM.
For the molecule B4, the Kd was determined as 1.38 nM.
B5 came in with a dissociation constant (Kd) of 1.34 nM.

Another assay concerns the target T4, human SIRPαBIT, extracellular domain 1-370, Avi-FXa-Fc tag (human, biotinylated).
T4 construct: also called huSIRPαBIT; v1
As to the kind of experiment: SPR, captured biotinylated antigen. As to the method: as §1
For the molecule B6, binding was put at a Kd of 0.378 nM.
Still for that read-out and setting: to B7 belongs 0.365 nM.
Same read-out and setting: to B8 belongs 0.212 nM.
As for B1, the Kd was less than 0.01 nM.
Same read-out and setting: to B2 belongs less than 0.01 nM; to B3, less than 0.01 nM; to B4, less than 0.01 nM.
The molecule B5 returned a Kd of less than 0.01 nM.

Another assay addresses T5, human SIRPγ, extracellular domain, Avi-FXa-Fc tag (human, biotinylated).
T5 construct: also called huSIRPγ
Kind of assay: SPR, captured biotinylated antigen. As to the method: as §1
B6: the binding result is “no binding (tested: below 10 RU cut-off; up to 1600 ng/ml)”.
The same measure, in the same setting: to B7 belongs “no binding (tested: below 10 RU cut-off; up to 1600 ng/ml)”; to B8, “no binding (tested: below 10 RU cut-off; up to 1600 ng/ml)”.
In the case of B1, the binding result is recorded as “no binding (tested: below 10 RU cut-off; up to 1600 ng/ml)”.
The same measure, in the same setting: to B2 belongs “no binding (tested: below 10 RU cut-off; up to 1600 ng/ml)”; to B3, “no binding (tested: below 10 RU cut-off; up to 1600 ng/ml)”; to B4, “no binding (tested: below 10 RU cut-off; up to 1600 ng/ml)”.
With B5, the binding result is listed as “no binding (tested: below 10 RU cut-off; up to 1600 ng/ml)”.

For the next assay, the target named is T6, human SIRPβ1v1, extracellular domain, Avi-FXa-Fc tag (human, biotinylated).
T6 construct: also called huSIRPβ1v1
T6 sequence (chain, as listed by the source limits assumed): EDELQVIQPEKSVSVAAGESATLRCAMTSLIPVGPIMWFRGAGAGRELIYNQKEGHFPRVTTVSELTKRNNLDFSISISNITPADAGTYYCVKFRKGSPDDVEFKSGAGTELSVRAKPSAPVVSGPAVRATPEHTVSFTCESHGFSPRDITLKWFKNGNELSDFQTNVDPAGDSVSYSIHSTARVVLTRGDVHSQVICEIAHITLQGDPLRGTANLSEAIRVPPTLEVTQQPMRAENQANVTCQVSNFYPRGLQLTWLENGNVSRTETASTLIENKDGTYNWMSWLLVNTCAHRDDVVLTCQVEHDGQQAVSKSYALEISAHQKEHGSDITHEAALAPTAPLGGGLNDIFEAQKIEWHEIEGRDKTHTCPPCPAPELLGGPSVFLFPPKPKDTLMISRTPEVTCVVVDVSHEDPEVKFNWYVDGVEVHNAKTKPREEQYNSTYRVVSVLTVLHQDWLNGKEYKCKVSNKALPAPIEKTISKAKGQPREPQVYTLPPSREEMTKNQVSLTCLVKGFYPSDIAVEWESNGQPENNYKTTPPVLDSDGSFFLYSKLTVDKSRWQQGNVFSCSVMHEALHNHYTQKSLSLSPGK
Kind of assay: SPR, captured biotinylated antigen. As to the method:
as §1
Turning to B6, the affinity, expressed as Kd, was 1.65 nM.
Same read-out and setting: in the case of B7 it was 1.44 nM; in that of B8, 2.01 nM.

For another assay, the target named is T7, human SIRPα1 expressed on cells (human, UniProt P78324 31-504).
T7 construct: whole, on cells; also called huSIRPα1; ExpiCHO-S (huSIRPα1)
Kind of assay: flow cytometry, ExpiCHO-S cells. As to the method:
(§2) After an incubation time of 30 min at 4° C., the cells were washed three times with ice-cold FACS buffer and 50 μl/well secondary mAb (for human antibodies, AffiniPure F(ab′)₂ fragment Goat-anti-human IgG-APC, 1:6,000 dilution, Jackson Immuno Research was added and for mouse antibodies, AffiniPure Fab fragment Goat Anti-Mouse IgG (H+L)-Alexa Fluor 488, 1:1,000 dilution, Jackson Immuno Research was added). After 30 min at 4° C., cells were washed twice and resuspended in 150 μl FACS buffer. Fluorescence intensities were determined by flow cytometry (BD FACSVerse, Franklin Lakes, N.J.) and indicated as the median fluorescence intensity (MFI-Median) for U937 cells and the mean fluorescence intensity (MFI-Mean) for ExpiCHO-S cells. Curves were fitted by nonlinear regression using the sigmoidal dose-response equation with variable slope (four parameters) in GraphPad Prism (version 7.02 for Windows, GraphPad, San Diego, Calif.). EC₅₀ values were calculated as the concentration in μg/ml that gives a response half way between bottom and top of the curve, when using a 4-parameter logistic fit.
For orientation: Flow cytometry measures light scatter and fluorescence of single cells or particles in a stream.
For the molecule B6, a half-maximal response (EC50) required 0.2 µg/mL.
Take B7: the midpoint of the response, the EC50, lay at 0.19 µg/mL.
Same read-out and setting: in the case of B8 it was 0.11 µg/mL.
Still for that read-out and setting: to B1 belongs 0.28 µg/mL.
Still for that read-out and setting: to B2 belongs 0.4 µg/mL; to B3, 0.38 µg/mL; to B4, 0.27 µg/mL.
As for B5, the EC50 (in general, the concentration at which the effect is half-maximal) came to 0.32 µg/mL.

Another assay addresses T8, cynomolgus monkey SIRPα expressed on ExpiCHO-S cells (cynomolgus monkey, UniProt A0A2K5VYQ9 31-507).
T8 construct: whole, on cells; also called cySIRPα; ExpiCHO-S (cySIRPα)
T8 sequence: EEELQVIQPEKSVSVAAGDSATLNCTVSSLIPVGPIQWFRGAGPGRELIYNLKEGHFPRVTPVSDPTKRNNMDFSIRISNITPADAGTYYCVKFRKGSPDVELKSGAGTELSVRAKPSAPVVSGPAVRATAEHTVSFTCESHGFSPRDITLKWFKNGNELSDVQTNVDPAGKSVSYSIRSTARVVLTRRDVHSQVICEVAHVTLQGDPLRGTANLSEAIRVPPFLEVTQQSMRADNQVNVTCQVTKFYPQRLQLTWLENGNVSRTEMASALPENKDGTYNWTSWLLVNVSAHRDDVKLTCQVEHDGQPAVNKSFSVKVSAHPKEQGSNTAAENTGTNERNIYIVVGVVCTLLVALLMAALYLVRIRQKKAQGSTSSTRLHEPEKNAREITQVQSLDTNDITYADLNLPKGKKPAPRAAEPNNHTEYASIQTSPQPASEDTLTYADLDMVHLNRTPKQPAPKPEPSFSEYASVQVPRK
As to the kind of experiment: flow cytometry, ExpiCHO-S cells. As to the method: as §2
For B1, the EC50 was found to be 0.12 µg/mL.
On the same count and under the same terms, to B2 belongs 0.15 µg/mL.
Turning to B3, the EC50 is 0.14 µg/mL.
Take B4: the midpoint of the response, the EC50, lay at 0.23 µg/mL.
Molecule B5 came in with an EC50 of 0.12 µg/mL.

For another assay, the target named is T9, human SIRPαBIT expressed on cells (human, UniProt P78324 31-504).
T9 construct: endogenous on U937 cells or transiently expressed on ExpiCHO-S cells; in the SHP-1 assay a ProLink-tagged form on Jurkat cells; also called huSIRPαBIT; U937 cells (huSIRPαBIT)
Kind of assay: flow cytometry, ExpiCHO-S cells. As to the method:
as §2
For B6, the EC50 amounted to 0.2 µg/mL.
On the same count and under the same terms, to B7 belongs 0.11 µg/mL; to B8, 0.08 µg/mL.
Same read-out and setting: to B1 belongs 0.3 µg/mL; to B2, 0.28 µg/mL; to B3, 0.36 µg/mL.
The molecule B4 showed an EC50 of 0.26 µg/mL.
Same read-out and setting: in the case of B5 it was 0.31 µg/mL.

A further assay addresses T9, human SIRPαBIT expressed on cells. Kind of assay: flow cytometry, U937 cells. As to the method:
as §2
The molecule B6 yielded an EC50 of 3.55 µg/mL.
Still for that read-out and setting: in the case of B7 it was 2.78 µg/mL; in that of B8, 3.73 µg/mL; in that of B1, 0.09 µg/mL.
In turn, B2 came in with an EC50 of 0.12 µg/mL.
Same read-out and setting: to B3 belongs 0.1 µg/mL; to B4, 0.08 µg/mL; to B5, 0.1 µg/mL.

In a further assay the target is T10, human SIRPγ on human CD3+ T-cells (human, UniProt Q9P1W8 29-387).
T10 construct: whole, on cells
T10 sequence (Q9P1W8 29-387): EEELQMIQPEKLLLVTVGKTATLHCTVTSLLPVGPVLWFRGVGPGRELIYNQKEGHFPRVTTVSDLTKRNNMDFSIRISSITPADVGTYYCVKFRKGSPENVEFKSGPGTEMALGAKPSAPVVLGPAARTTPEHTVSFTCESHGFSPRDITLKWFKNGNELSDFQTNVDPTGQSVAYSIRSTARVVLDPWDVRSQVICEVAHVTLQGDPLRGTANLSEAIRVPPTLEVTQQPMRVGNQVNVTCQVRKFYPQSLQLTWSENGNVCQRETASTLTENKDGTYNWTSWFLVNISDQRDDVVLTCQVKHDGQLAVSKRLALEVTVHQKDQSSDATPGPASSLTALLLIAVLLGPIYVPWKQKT
As to the kind of experiment: flow cytometry on CD3+ T-cells in PBMC of two healthy individuals, % of positive cells. As to the method: (§3) Flow Cytometry assay: Peripheral mononuclear cells (PBMC) were isolated from fresh blood of healthy individuals using Percoll gradient. […] Cells (200,000 cells/well in a 96-well plate) were subsequently incubated in the presence of tested antibodies or control conditions with secondary antibodies only (secondary goat anti-human IgG Alexa 633 F(ab′)₂ fragment, dilution 1:1000, Jackson Immuno Research, and secondary goat anti-mouse IgG Alexa 633 F(ab′)₂ fragment, dilution 1:250, Invitrogen) for 30 min on ice. After that, cells were washed with FACS buffer and resuspended in a mixture of anti-human CD3 FITC antibody (dilution 1:100, Invitrogen) with respective secondary antibody (either anti-human or anti-mouse) and incubated for 30 min in the dark on ice. Afterwards the cells were washed with FACS buffer and resuspended in 150 μl of FACS buffer and fluorescence intensities were determined by flow cytometry (LSRII HTS or LSRFortessa, BD Biosciences, CA, USA) and indicated as the median fluorescence intensity (MFI-Median) and percentage of positive cells.
As for B6, the binding result was “no binding”.
Still for that read-out and setting: to B1 belongs “no binding”.
With B2, the binding result is reported as “no binding”.
For B3, the binding result was “no binding”.
As for B5, the binding result is listed as “no binding”.

The target of a further assay is T10, human SIRPγ on human CD3+ T-cells. As to the kind of experiment: flow cytometry on CD3+ T-cells in PBMC of two healthy individuals, MFI. As to the method:
as §3
In the case of B7, the binding result is given as “no binding”.
On the same count and under the same terms, in the case of B8 it was “no binding”.
Same read-out and setting: in the case of B4 it was “no binding”.
